Source: the supplement of paper PMC10065799, “High-throughput profiling of sequence recognition by tyrosine kinases and SH2 domains using bacterial peptide display” (eLife, 2023)

System: Fer (mouse)
Experiment: phosphorylation enrichment, bacterial display (enrichment ratio); higher = better substrate or ligand; peptides without Tyr show the background
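Further: 11-residue human phosphosite peptides and single-mutation variants displayed on the E. coli surface, counted by deep sequencing, each peptide's frequency after selection divided by its frequency in the unselected input library; frequency after pTyr selection over input frequency; kinase dosed for 20-30% of maximal phosphorylation in three min.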

Sequence | phosphorylation enrichment
NDQPDYDSVAS [GIT2_Y392] | 0.558
LMVFEYMRHGD [NTRK1_Y591] | 0.614
TRHDEYLEVTK [MAP1A_Y2217] | 0.421
AEVDTYCRHNF [HLA-DRB1_Y107_A103E_YF] | 0.813
KMKGDYYRYLA [YWHAG_Y130] | 0.393
FKRAVYCIIGR [NUP93_Y391_YF] | 0.529
VPLLEYYRDIF [CDAN1_Y712] | 0.544
DHYNQYEQQKM [CHD7_Y75] | 0.451
YCIDHYLGKEM [G6PD_Y202_R198C] | 0.952
WLQKLYNNFVN [MYO5C_Y526] | 0.483
ILDEAYVMAIV [EGFR_Y764_S768I] | 0.968
PSQRHYVFFFS [PTEN_Y174_R173H_YF] | 0.535
RLEKEYFDQHF [NPC1_Y394] | 0.5
VILENYGADID [DNAH5_Y596_L591V] | 0.492
KVVQEYERVII [NPHS2_Y131] | 3.84
CEHFSYYGMKA [SLC15A2_Y60_R57H] | 0.812
PSQRPYVYYYS [PTEN_Y174_R173P] | 0.64
GGSDCYGSLRP [MYLK_Y846_R845C] | 0.558
PKAWNYELPAT [PROM1_Y34] | 0.72
ERDFTYDELLN [EIF2S2_Y176_E177D_YF] | 0.638
YSQNIYIQNRN [PKP2_Y631] | 0.489
TLLERYGMIEI [ACSF3_Y355_T358I] | 0.632
LKGQVYILGLE [ASS1_Y359_R363L] | 0.664
AQAGEYGAEAL [HBA1_Y25_H21Q] | 0.465
WIPIQCPIISE [NOG_Y222_Y222C] | 0.54
VEGIGYDFIPT [CBS_Y308] | 0.43
CGTPDNIAPEI [PRKCG_Y521_Y521N] | 0.548
YFRDGHMPRQY [GSS_Y270_Y270H] | 0.436
VLPIDYYFPPQ [AR_Y552] | 0.694

Molecular target: FGFR3 (UniProt P22607)
Experiment: as above

Sequence of FGFR3 (P22607 whole entry, looked up): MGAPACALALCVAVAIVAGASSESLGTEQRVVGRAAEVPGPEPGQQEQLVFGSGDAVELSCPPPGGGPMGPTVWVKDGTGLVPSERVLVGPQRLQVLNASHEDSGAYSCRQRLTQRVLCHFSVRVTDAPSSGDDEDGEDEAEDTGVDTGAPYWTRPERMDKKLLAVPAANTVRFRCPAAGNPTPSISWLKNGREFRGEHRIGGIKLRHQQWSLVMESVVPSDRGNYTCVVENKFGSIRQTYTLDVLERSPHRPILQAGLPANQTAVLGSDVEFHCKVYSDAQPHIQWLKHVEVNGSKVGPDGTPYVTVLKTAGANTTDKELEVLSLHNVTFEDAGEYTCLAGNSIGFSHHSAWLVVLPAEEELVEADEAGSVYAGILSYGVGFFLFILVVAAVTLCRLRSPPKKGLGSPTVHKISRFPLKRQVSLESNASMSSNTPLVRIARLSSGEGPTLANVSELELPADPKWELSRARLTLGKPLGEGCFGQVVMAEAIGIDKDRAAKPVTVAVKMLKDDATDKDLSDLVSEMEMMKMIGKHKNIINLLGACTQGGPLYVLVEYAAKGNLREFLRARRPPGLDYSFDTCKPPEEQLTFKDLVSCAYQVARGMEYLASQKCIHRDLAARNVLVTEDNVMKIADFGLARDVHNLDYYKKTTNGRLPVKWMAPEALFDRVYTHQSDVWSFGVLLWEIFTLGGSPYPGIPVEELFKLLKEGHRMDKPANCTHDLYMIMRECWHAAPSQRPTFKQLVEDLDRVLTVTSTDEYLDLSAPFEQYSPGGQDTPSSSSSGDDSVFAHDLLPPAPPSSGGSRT

Sequence | phosphorylation enrichment
NDQPDYDSVAS [GIT2_Y392] | 0.76
LMVFEYMRHGD [NTRK1_Y591] | 0.756
TRHDEYLEVTK [MAP1A_Y2217] | 1.11
AEVDTYCRHNF [HLA-DRB1_Y107_A103E_YF] | 0.61
KMKGDYYRYLA [YWHAG_Y130] | 5.52
FKRAVYCIIGR [NUP93_Y391_YF] | 0.536
VPLLEYYRDIF [CDAN1_Y712] | 2.83
DHYNQYEQQKM [CHD7_Y75] | 0.524
YCIDHYLGKEM [G6PD_Y202_R198C] | 0.558
WLQKLYNNFVN [MYO5C_Y526] | 0.774
ILDEAYVMAIV [EGFR_Y764_S768I] | 1.02
PSQRHYVFFFS [PTEN_Y174_R173H_YF] | 1.2
RLEKEYFDQHF [NPC1_Y394] | 0.959
VILENYGADID [DNAH5_Y596_L591V] | 0.719
KVVQEYERVII [NPHS2_Y131] | 0.719
CEHFSYYGMKA [SLC15A2_Y60_R57H] | 3.17
PSQRPYVYYYS [PTEN_Y174_R173P] | 3.08
GGSDCYGSLRP [MYLK_Y846_R845C] | 0.566
PKAWNYELPAT [PROM1_Y34] | 0.574
ERDFTYDELLN [EIF2S2_Y176_E177D_YF] | 0.815
YSQNIYIQNRN [PKP2_Y631] | 0.483
TLLERYGMIEI [ACSF3_Y355_T358I] | 0.644
LKGQVYILGLE [ASS1_Y359_R363L] | 0.961
AQAGEYGAEAL [HBA1_Y25_H21Q] | 0.629
WIPIQCPIISE [NOG_Y222_Y222C] | 1.04
VEGIGYDFIPT [CBS_Y308] | 0.685
CGTPDNIAPEI [PRKCG_Y521_Y521N] | 0.933
YFRDGHMPRQY [GSS_Y270_Y270H] | 0.583
VLPIDYYFPPQ [AR_Y552] | 12.6

System: c-Abl (mouse)
Experiment: as above

Sequence | phosphorylation enrichment
NDQPDYDSVAS [GIT2_Y392] | 0.849
LMVFEYMRHGD [NTRK1_Y591] | 0.457
TRHDEYLEVTK [MAP1A_Y2217] | 0.612
AEVDTYCRHNF [HLA-DRB1_Y107_A103E_YF] | 0.618
KMKGDYYRYLA [YWHAG_Y130] | 0.705
FKRAVYCIIGR [NUP93_Y391_YF] | 0.776
VPLLEYYRDIF [CDAN1_Y712] | 0.728
DHYNQYEQQKM [CHD7_Y75] | 0.445
YCIDHYLGKEM [G6PD_Y202_R198C] | 0.611
WLQKLYNNFVN [MYO5C_Y526] | 0.874
ILDEAYVMAIV [EGFR_Y764_S768I] | 0.84
PSQRHYVFFFS [PTEN_Y174_R173H_YF] | 1.22
RLEKEYFDQHF [NPC1_Y394] | 0.795
VILENYGADID [DNAH5_Y596_L591V] | 0.674
KVVQEYERVII [NPHS2_Y131] | 0.757
CEHFSYYGMKA [SLC15A2_Y60_R57H] | 0.708
PSQRPYVYYYS [PTEN_Y174_R173P] | 1
GGSDCYGSLRP [MYLK_Y846_R845C] | 0.746
PKAWNYELPAT [PROM1_Y34] | 0.735
ERDFTYDELLN [EIF2S2_Y176_E177D_YF] | 0.894
YSQNIYIQNRN [PKP2_Y631] | 0.6
TLLERYGMIEI [ACSF3_Y355_T358I] | 0.802
LKGQVYILGLE [ASS1_Y359_R363L] | 0.759
AQAGEYGAEAL [HBA1_Y25_H21Q] | 0.491
WIPIQCPIISE [NOG_Y222_Y222C] | 0.836
VEGIGYDFIPT [CBS_Y308] | 0.723
CGTPDNIAPEI [PRKCG_Y521_Y521N] | 0.782
YFRDGHMPRQY [GSS_Y270_Y270H] | 0.541
VLPIDYYFPPQ [AR_Y552] | 1.06

Molecular target: MERTK (UniProt Q12866)
Experiment: as above

Sequence of MERTK (Q12866 whole entry, looked up): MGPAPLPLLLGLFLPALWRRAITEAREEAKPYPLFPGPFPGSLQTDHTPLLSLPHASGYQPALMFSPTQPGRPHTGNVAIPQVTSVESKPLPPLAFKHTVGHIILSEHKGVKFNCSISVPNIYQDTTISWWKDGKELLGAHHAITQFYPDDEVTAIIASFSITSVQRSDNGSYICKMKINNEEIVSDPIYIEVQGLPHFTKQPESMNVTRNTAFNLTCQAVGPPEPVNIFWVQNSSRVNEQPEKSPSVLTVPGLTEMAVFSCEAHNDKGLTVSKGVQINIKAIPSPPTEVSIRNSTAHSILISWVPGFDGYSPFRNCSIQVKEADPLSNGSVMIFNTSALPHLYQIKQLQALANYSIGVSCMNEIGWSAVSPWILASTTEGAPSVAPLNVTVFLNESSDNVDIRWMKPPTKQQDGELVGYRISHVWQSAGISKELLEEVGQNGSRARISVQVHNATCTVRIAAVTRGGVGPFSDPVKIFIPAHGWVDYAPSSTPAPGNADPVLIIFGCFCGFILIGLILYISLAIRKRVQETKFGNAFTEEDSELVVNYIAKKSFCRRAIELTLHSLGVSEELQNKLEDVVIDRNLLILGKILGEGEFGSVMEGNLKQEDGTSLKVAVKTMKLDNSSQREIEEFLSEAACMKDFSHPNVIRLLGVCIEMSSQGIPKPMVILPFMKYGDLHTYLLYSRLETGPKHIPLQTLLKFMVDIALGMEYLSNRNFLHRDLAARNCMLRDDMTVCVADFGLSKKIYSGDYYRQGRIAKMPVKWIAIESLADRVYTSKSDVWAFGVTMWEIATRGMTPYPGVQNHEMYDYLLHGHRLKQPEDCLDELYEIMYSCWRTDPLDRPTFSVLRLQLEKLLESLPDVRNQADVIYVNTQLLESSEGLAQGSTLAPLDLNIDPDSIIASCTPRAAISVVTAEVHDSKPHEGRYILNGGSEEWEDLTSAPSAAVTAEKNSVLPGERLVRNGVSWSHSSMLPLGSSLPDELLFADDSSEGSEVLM

Sequence | phosphorylation enrichment
NDQPDYDSVAS [GIT2_Y392] | 0.511
LMVFEYMRHGD [NTRK1_Y591] | 0.426
TRHDEYLEVTK [MAP1A_Y2217] | 0.343
AEVDTYCRHNF [HLA-DRB1_Y107_A103E_YF] | 0.473
KMKGDYYRYLA [YWHAG_Y130] | 2.1
FKRAVYCIIGR [NUP93_Y391_YF] | 1.13
VPLLEYYRDIF [CDAN1_Y712] | 0.441
DHYNQYEQQKM [CHD7_Y75] | 0.359
YCIDHYLGKEM [G6PD_Y202_R198C] | 0.64
WLQKLYNNFVN [MYO5C_Y526] | 0.429
ILDEAYVMAIV [EGFR_Y764_S768I] | 0.454
PSQRHYVFFFS [PTEN_Y174_R173H_YF] | 0.892
RLEKEYFDQHF [NPC1_Y394] | 0.631
VILENYGADID [DNAH5_Y596_L591V] | 0.641
KVVQEYERVII [NPHS2_Y131] | 0.435
CEHFSYYGMKA [SLC15A2_Y60_R57H] | 1.54
PSQRPYVYYYS [PTEN_Y174_R173P] | 7.73
GGSDCYGSLRP [MYLK_Y846_R845C] | 0.429
PKAWNYELPAT [PROM1_Y34] | 0.59
ERDFTYDELLN [EIF2S2_Y176_E177D_YF] | 0.537
YSQNIYIQNRN [PKP2_Y631] | 1.43
TLLERYGMIEI [ACSF3_Y355_T358I] | 0.489
LKGQVYILGLE [ASS1_Y359_R363L] | 0.518
AQAGEYGAEAL [HBA1_Y25_H21Q] | 0.327
WIPIQCPIISE [NOG_Y222_Y222C] | 0.373
VEGIGYDFIPT [CBS_Y308] | 0.501
CGTPDNIAPEI [PRKCG_Y521_Y521N] | 0.459
YFRDGHMPRQY [GSS_Y270_Y270H] | 0.445
VLPIDYYFPPQ [AR_Y552] | 2.47
